Measurements from patent US20040096899A1, “Immunoassay method for membrane-bound matrix metalloprotease” (priority 2000, published 2004).

B1: MMP-19: matrix metalloproteinase subjected to MT1-MMP sandwich EIA for cross reactivity (protein)
chain: RVLGLAEVAPVDYLSQYGYLQKPLEGSNNFKPEDITEALRAFQEASELPVSGQLDDATRARMRQPRCGLEDPFNQKTLKYLLLGRWRKKHLTFRILNLPSTLPPHTARAALRQAFQDWSNVAPLTFQEVQAGAADIRLSFHGRQSSYCSNTFDGPGRVLAHADIPELGSVHFDEDEFWTEGTYRGVNLRIIAAHEVGHALGLGHSRYSQALMAPVYEGYRPHFKLHPDDVAGIQALYGKKSPVIRDEEEEETELPTVPPVPTEPSPMPDPCSSELDAMMLGPRGKTYAFKGDYVWTVSDSGPGPLFRVSALWEGLPGNLDAAVYSPRTQWIHFFKGDKVWRYINFKMSPGFPKKLNRVEPNLDAALYWPLNQKVFLFKGSGYWQWDELARTDFSSYPKPIKGLFTGVPNQPSAAMSWQDGRVYFFKGKVYWRLNQQLRVEKGYPRNISHNWMHCRPRTIDTTPSGGNTTPSGTGITLDTTLSATETTFEY
B2: MMP-9: matrix metalloproteinase subjected to MT1-MMP sandwich EIA for cross reactivity (protein)
chain: APRQRQSTLVLFPGDLRTNLTDRQLAEEYLYRYGYTRVAEMRGESKSLGPALLLLQKQLSLPETGELDSATLKAMRTPRCGVPDLGRFQTFEGDLKWHHHNITYWIQNYSEDLPRAVIDDAFARAFALWSAVTPLTFTRVYSRDADIVIQFGVAEHGDGYPFDGKDGLLAHAFPPGPGIQGDAHFDDDELWSLGKGVVVPTRFGNADGAACHFPFIFEGRSYSACTTDGRSDGLPWCSTTANYDTDDRFGFCPSERLYTQDGNADGKPCQFPFIFQGQSYSACTTDGRSDGYRWCATTANYDRDKLFGFCPTRADSTVMGGNSAGELCVFPFTFLGKEYSTCTSEGRGDGRLWCATTSNFDSDKKWGFCPDQGYSLFLVAAHEFGHALGLDHSSVPEALMYPMYRFTEGPPLHKDDVNGIRHLYGPRPEPEPRPPTTTTPQPTAPPTVCPTGPPTVHPSERPTAGPTGPPSAGPTGPPTAGPSTATTVPLSPVDDACNVNIFDAIAEIGNQLYLFKDGKYWRFSEGRGSRPQGPFLIADKWPALPRKLDSVFEERLSKKLFFFSGRQVWVYTGASVLGPRRLDKLGLGADVAQVTGALRSGRGKMLLFSGRRLWRFDVKAQMVDPRSASEVDRMFPGVPLDTHDVFQYREKAYFCQDRFYWRVSSRSELNQVDQVGYVTYDILQCPED
B3: MMP-2: matrix metalloproteinase subjected to MT1-MMP sandwich EIA for cross reactivity (protein)
chain: APSPIIKFPGDVAPKTDKELAVQYLNTFYGCPKESCNLFVLKDTLKKMQKFFGLPQTGDLDQNTIETMRKPRCGNPDVANYNFFPRKPKWDKNQITYRIIGYTPDLDPETVDDAFARAFQVWSDVTPLRFSRIHDGEADIMINFGRWEHGDGYPFDGKDGLLAHAFAPGTGVGGDSHFDDDELWTLGEGQVVRVKYGNADGEYCKFPFLFNGKEYNSCTDTGRSDGFLWCSTTYNFEKDGKYGFCPHEALFTMGGNAEGQPCKFPFRFQGTSYDSCTTEGRTDGYRWCGTTEDYDRDKKYGFCPETAMSTVGGNSEGAPCVFPFTFLGNKYESCTSAGRSDGKMWCATTANYDDDRKWGFCPDQGYSLFLVAAHEFGHAMGLEHSQDPGALMAPIYTYTKNFRLSQDDIKGIQELYGASPDIDLGTGPTPTLGPVTPEICKQDIVFDGIAQIRGEIFFFKDRFIWRTVTPRDKPMGPLLVATFWPELPEKIDAVYEAPQEEKAVFFAGNEYWIYSASTLERGYPKPLTSLGLPPDVQRVDAAFNWSKNKKTYIFAGDKFWRYNEVKKKMDPGFPKLIADAWNAIPDNLDAVVDLQGGGHSYFFKGAYYLKLENQSLKSVKFGSIKSDWLGC
B4: MMP-1: matrix metalloproteinase subjected to MT1-MMP sandwich EIA for cross reactivity (protein)
chain: FPATLETQEQDVDLVQKYLEKYYNLKNDGRQVEKRRNSGPVVEKLKQMQEFFGLKVTGKPDAETLKVMKQPRCGVPDVAQFVLTEGNPRWEQTHLTYRIENYTPDLPRADVDHAIEKAFQLWSNVTPLTFTKVSEGQADIMISFVRGDHRDNSPFDGPGGNLAHAFQPGPGIGGDAHFDEDERWTNNFREYNLHRVAAHELGHSLGLSHSTDIGALMYPSYTFSGDVQLAQDDIDGIQAIYGRSQNPVQPIGPQTPKACDSKLTFDAITTIRGEVMFFKDRFYMRTNPFYPEVELNFISVFWPQLPNGLEAAYEFADRDEVRFFKGNKYWAVQGQNVLHGYPKDIYSSFGFPRTVKHIDAALSEENTGKTYFFVANKYWRYDEYKRSMDPGYPKMIAHDFPGIGHKVDAVFMKDGFFYFFHGTRQYKFDPKTKRILTLQKANSWFNCRKN
B5: MMP-20: matrix metalloproteinase subjected to MT1-MMP sandwich EIA for cross reactivity (protein)
chain: APSLVAASPRTWRNNYRLAQAYLDKYYTNKEGHQIGEMVARGSNSMIRKIKELQAFFGLQVTGKLDQTTMNVIKKPRCGVPDVANYRLFPGEPKWKKNTLTYRISKYTPSMSSVEVDKAVEMALQAWSSAVPLSFVRINSGEADIMISFENGDHGDSYPFDGPRGTLAHAFAPGEGLGGDTHFDNAEKWTMGTNGFNLFTVAAHEFGHALGLAHSTDPSALMYPTYKYKNPYGFHLPKDDVKGIQALYGPRKVFLGKPTLPHAPHHKPSIPDLCDSSSSFDAVTMLGKELLLFKDRIFWRRQVHLRTGIRPSTITSSFPQLMSNVDAAYEVAERGTAYFFKGPHYWITRGFQMQGPPRTIYDFGFPRHVQQIDAAVYLREPQKTLFFVGDEYYSYDERKRKMEKDYPKNTEEEFSGVNGQIDAAVELNGYIYFFSGPKTYKYDTEKEDVVSVVKSSSWIGC

What follows are molecules tested against T1, MT1-MMP sandwich EIA (solid-phase antibody 222-2D12, labeled antibody 222-1D8) (Homo sapiens, UniProt P50281) (assay: Specificity test: cross reactivity on MT1-MMP sandwich EIA). Details: concentration 1 μg/mL; blank 0.027.
T1 construct: 488 amino acid residues of Δ MT1-MMP (G^48 to G^53) which lacks the signal peptide and part of the propeptide region; made in house; host or cells: E. coli
Format: binding
Description: Monoclonal antibodies (e.g., 333-2D12 (IgG)) were dissolved in 0.1 M phosphate buffer, pH 7.0 to a concentration of 25 μg/mL. The monoclonal antibody solution was added to each well of a 96-well microwell (Maxisorp; Nunc-Immuno Module) at 100 μL per well and allowed to stand at 4° C. for 24 hrs. […] The solid-phase antibodies were preserved at 4° C.
Standard antigens or samples to be assayed were dispensed into a 96-well vinyl plate at 25 μL each. To each well was added a dilution buffer in aliquots of 100 μL, followed by mixing. An aliquot (100 μL) of the resultant mixture was taken out, dispensed into an antibody-solid phased plate from which a blocking solution was removed by washing. The plate was then allowed to stand at 4° C. for 16 hours.
[…] antibody 222-1D8 (Fab′-HRP) was diluted with a blocking solution to a concentration of 0.4 μg/mL. The reaction solution was removed from the antibody-solid phased plate where the primary reaction was completed. The plate was washed with a washing liquid three times and an aliquot (100 μL) of the labeled antibody solution was added to each well. The plate was allowed to stand at room temperature for 1 hour.
After completion of the reaction, the labeled antibody solution was removed. The plate was then washed with a washing liquid three times, and a TMB solution (CALBIOCHEM) was added to each well at 100 μL. The mixture was allowed to react at room temperature for 20 minute. The reaction was stopped with the addition of 2 N sulfuric acid at 100 μL per well. The reaction mixture was measured for A450 with a microplate reader (MPR-A4; Tosoh).
Each of MMP-1, -2, -3, -4, -7, -8, -9, -13, -19 and -20 was prepared to give a concentration of 1 μg/mL, and subjected to MT1-MMP sandwich EIA. A450 was measured. When MT1-MMP was subjected to sandwich EIA at 0.16 μg/mL, the absorbance was 2.206. However, when the above MMPs were subjected, their absorbances were only an extent of 0.024 to 0.071. Accordingly, it has been verified that MT1-MMP sandwich EIA is specifically reactive with MT1-MMP.
For B1, the A450 was 0.027.
In the case of B2, the A450 is reported as 0.039.
B3 was tested, and the A450 was 0.024.
With B4 the A450 was 0.025.
B5 gave an A450 of 0.071.
